We go through one substance from patent US6416758.

The assay has as its target VEGF:sFlk-1 complex (VEGF associated with its receptor) (human; mouse) (UniProt P15692). The experiment in a line: capture ELISA: antibody coated on wells, VEGF complexed with biotinylated sFlk-1 titrated, peroxidase-avidin; concentration giving 50% maximal binding; extrapolated value (*).

As usually defined, the EC50 is the midpoint of the concentration-response curve.

Sequence of VEGF:sFlk-1 complex (VEGF associated with its receptor) (human; mouse) (P15692 other isoform, or with tags, fused parts or gaps limits assumed, chain 1 of 2): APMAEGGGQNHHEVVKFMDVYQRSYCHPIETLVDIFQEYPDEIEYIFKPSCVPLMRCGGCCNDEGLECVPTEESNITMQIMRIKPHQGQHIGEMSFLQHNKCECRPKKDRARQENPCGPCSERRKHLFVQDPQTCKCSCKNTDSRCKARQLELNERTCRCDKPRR
Sequence of VEGF:sFlk-1 complex (VEGF associated with its receptor) (human; mouse) (P35918 20-762 limits assumed, chain 2 of 2, further chain): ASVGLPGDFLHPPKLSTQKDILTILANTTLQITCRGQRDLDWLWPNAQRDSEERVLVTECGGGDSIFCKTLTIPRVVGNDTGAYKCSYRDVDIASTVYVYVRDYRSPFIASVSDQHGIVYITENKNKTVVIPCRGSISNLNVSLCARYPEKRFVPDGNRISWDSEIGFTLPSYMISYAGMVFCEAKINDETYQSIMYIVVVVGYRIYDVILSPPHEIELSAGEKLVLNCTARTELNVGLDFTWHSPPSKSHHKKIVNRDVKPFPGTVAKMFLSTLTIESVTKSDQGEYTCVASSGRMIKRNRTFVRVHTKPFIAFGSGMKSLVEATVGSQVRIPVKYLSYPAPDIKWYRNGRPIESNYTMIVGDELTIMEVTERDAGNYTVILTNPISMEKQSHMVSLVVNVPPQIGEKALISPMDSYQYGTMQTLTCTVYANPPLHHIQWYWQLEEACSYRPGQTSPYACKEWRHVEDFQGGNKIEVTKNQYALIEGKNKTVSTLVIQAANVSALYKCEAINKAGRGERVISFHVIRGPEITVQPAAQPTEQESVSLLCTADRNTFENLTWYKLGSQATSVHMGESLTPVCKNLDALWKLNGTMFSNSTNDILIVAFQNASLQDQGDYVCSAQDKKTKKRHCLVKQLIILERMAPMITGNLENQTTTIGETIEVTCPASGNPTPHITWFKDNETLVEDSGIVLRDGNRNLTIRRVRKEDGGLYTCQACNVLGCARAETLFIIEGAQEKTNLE
Sequence of A4.6.1 (mouse anti-human VEGF monoclonal antibody, Genentech) (VH): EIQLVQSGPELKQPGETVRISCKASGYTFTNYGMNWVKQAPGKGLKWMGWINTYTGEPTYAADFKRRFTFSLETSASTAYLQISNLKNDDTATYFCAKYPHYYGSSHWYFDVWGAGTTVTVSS
Sequence of A4.6.1 (mouse anti-human VEGF monoclonal antibody, Genentech) (VL): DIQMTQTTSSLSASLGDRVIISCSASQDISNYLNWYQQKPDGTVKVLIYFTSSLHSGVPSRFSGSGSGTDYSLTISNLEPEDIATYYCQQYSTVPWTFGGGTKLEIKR

In the case of “A4.6.1 (mouse anti-human VEGF monoclonal antibody, Genentech)”, the EC50 is 500 nM.
